{"source": "patent US20250000946A1", "about": "(WUXI BIOLOGICS IRELAND, published 2025)", "binders": {"B1": {"name": "W3XX115-T2U0.E44-26.uIgG4V1 (Fc fusion)", "chain": "APTSSSTKKTQLQLEHLLLDLQMILNGINNYKNPKLTRMLTFKFYMPKKATELKHLQCLEEELKPLEEVLNLAQSKNFHLRPRDLISNINVIVLELKGSETTFMCEYADETATIVEFLNRWITFCQSILESKYGPPCPPCPAPEFLGGPSVFLFPPKPKDTLMISRTPEVTCVVVDVSQEDPEVQFNWYVDGVEVHNAKTKPREEQFNSTYRVVSVLTVLHQDWLNGKEYKCKVSNKGLPSSIEKTISKAKGQPREPQVYTLPPCQEEMTKNQVSLWCLVKGFYPSDIAVEWESNGQPENNYKTTPPVLDSDGSFFLYSRLTVDKSRWQEGNVFSCSVMHEALHNHYTQKSLSLSLG", "heavy": "EIQLQQSGPELVKPGASVKVSCKASGYSFTDYNMYWVKQSHGESLEWIGYIDPYNGGTRYNQKFKGKATLTVDKSSSTAFMHLNSLTSEDSAVYYCARNGHWDGAWFAYWGQGTLVTVSAASTKGPSVFPLAPCSRSTSESTAALGCLVKDYFPEPVTVSWNSGALTSGVHTFPAVLQSSGLYSLSSVVTVPSSSLGTKTYTCNVDHKPSNTKVDKRVESKYGPPCPPCPAPEFLGGPSVFLFPPKPKDTLMISRTPEVTCVVVDVSQEDPEVQFNWYVDGVEVHNAKTKPREEQFNSTYRVVSVLTVLHQDWLNGKEYKCKVSNKGLPSSIEKTISKAKGQPREPQVCTLPPSQEEMTKNQVSLSCAVKGFYPSDIAVEWESNGQPENNYKTTPPVLDSDGSFFLVSRLTVDKSRWQEGNVFSCSVMHEALHNHYTQKSLSLSLG", "light": "DIQMNQSPSSLSASLGDTITITCHASQNINVWLSWYQQKPGNIPKLLIYKASNLHTGVPSRFSGSRSGTGFTLTISSLQPEDIATYYCHQGQSYPFTFGSGTKLEIKRTVAAPSVFIFPPSDEQLKSGTASVVCLLNNFYPREAKVQWKVDNALQSGNSQESVTEQDSKDSTYSLSSTLTLSKADYEKHKVYACEVTHQGLSSPVTKSFNRGEC", "notes": "IL-2 del STLT and I129L; E44 format, IgG4"}, "B2": {"name": "W3XX115-T2U0.E44-25.uIgG4V1 (Fc fusion)", "chain": "APTSSSTKKTQLQLEHLLLDLQMILNGINNYKNPKLTRMLTFKFYMPKKATELKHLQCLEEELKPLEEVLNLAQSKNFHLRPRDLISNINVIVLELKGSETTFMCEYADETATIVEFLNRWITFCQSIIKYGPPCPPCPAPEFLGGPSVFLFPPKPKDTLMISRTPEVTCVVVDVSQEDPEVQFNWYVDGVEVHNAKTKPREEQFNSTYRVVSVLTVLHQDWLNGKEYKCKVSNKGLPSSIEKTISKAKGQPREPQVYTLPPCQEEMTKNQVSLWCLVKGFYPSDIAVEWESNGQPENNYKTTPPVLDSDGSFFLYSRLTVDKSRWQEGNVFSCSVMHEALHNHYTQKSLSLSLG", "heavy": "B1 heavy", "light": "B1 light", "notes": "IL-2 del STLT and 2 aa deleted in IgG4 N-terminal hinge; E44 format"}, "B3": {"name": "W3XX115-T2U0.E44-30.uIgG4V1 (Fc fusion)", "chain": "B1 chain with L129T", "heavy": "B1 heavy", "light": "B1 light", "notes": "IL-2 del STLT and I129T; E44 format, IgG4"}, "B4": {"name": "W3XX115-T2U0.E44-29.uIgG4V1 (Fc fusion)", "chain": "B1 chain with L129S", "heavy": "B1 heavy", "light": "B1 light", "notes": "IL-2 del STLT and I129S; E44 format, IgG4"}, "B5": {"name": "W3XX115-T2U0.E44-27.uIgG4V1 (Fc fusion)", "chain": "B1 chain with L129V", "heavy": "B1 heavy", "light": "B1 light", "notes": "IL-2 del STLT and I129V; E44 format, IgG4"}, "B6": {"name": "W3XX115-T2U0.E44-24.uIgG4V1 (Fc fusion)", "chain": "APTSSSTKKTQLQLEHLLLDLQMILNGINNYKNPKLTRMLTFKFYMPKKATELKHLQCLEEELKPLEEVLNLAQSKNFHLRPRDLISNINVIVLELKGSETTFMCEYADETATIVEFLNRWITFCQSIISKYGPPCPPCPAPEFLGGPSVFLFPPKPKDTLMISRTPEVTCVVVDVSQEDPEVQFNWYVDGVEVHNAKTKPREEQFNSTYRVVSVLTVLHQDWLNGKEYKCKVSNKGLPSSIEKTISKAKGQPREPQVYTLPPCQEEMTKNQVSLWCLVKGFYPSDIAVEWESNGQPENNYKTTPPVLDSDGSFFLYSRLTVDKSRWQEGNVFSCSVMHEALHNHYTQKSLSLSLG", "heavy": "B1 heavy", "light": "B1 light", "notes": "IL-2 del STLT and 1 aa deleted in IgG4 N-terminal hinge; E44 format"}, "B7": {"name": "W3XX115-T2U0.E44-28.uIgG4V1 (Fc fusion)", "chain": "B1 chain with L129A", "heavy": "B1 heavy", "light": "B1 light", "notes": "IL-2 del STLT and I129A; E44 format, IgG4"}}, "note": "Changes are numbered by the printed parent chain. Names and notes keep the numbering of the source."}
{"target": "T1, Human IL-2Rα/β/γ complex (high affinity IL-2 receptor) (human, UniProt P01589 22-272; P14784 27-551; P31785 23-369)", "T1 construct": "whole, on cells", "T1 sequence (looked up) 1": "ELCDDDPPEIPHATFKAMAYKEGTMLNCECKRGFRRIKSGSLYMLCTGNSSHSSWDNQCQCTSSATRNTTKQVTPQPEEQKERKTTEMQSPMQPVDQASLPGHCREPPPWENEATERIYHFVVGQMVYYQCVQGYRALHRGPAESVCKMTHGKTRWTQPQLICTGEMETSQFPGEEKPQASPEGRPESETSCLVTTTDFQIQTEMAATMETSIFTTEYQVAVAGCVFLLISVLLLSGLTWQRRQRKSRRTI", "T1 sequence (looked up) 2": "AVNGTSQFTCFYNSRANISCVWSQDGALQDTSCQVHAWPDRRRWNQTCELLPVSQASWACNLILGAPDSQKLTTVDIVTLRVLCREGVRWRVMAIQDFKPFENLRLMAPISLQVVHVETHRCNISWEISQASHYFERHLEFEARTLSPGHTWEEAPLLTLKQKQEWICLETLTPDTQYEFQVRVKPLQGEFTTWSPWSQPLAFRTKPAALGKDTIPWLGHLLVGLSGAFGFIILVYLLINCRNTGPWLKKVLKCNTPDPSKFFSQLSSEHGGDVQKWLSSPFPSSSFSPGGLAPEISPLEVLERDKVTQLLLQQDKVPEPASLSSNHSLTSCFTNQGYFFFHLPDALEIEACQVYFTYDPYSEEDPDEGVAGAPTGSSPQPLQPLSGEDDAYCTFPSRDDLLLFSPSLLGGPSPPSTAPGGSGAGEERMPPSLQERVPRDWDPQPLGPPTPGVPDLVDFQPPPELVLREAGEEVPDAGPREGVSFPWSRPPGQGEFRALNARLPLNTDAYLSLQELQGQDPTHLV", "T1 sequence (looked up) 3": "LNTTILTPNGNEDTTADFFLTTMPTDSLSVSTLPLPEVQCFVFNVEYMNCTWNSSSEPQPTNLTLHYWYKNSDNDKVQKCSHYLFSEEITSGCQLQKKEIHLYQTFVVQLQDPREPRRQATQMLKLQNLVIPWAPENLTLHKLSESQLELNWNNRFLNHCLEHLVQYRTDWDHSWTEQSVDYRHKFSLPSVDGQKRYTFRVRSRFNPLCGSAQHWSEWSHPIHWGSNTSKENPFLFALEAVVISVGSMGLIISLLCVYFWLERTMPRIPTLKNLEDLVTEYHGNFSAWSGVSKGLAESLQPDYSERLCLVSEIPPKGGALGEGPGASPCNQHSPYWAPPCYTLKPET", "experiment": "FACS, MJ20 cells", "procedure": "(§1) Human cutaneous T cell lymphoma HH cells, malignant non-Hodgkin's lymphoma NK92 cells and cutaneous T cell lymphoma MJ20 cells were used for binding assay. They both constitutively express IL-2Rβ (CD122) and […] (CD132), and NK92 and MJ20 also expresses IL-2Rα (CD25). HH, NK92 and MJ20 cells were cultured following ATCC guidance, then transferred to a 96-plate for binding analysis. Cells were incubated with IL-2/Fc fusion proteins at the indicated concentrations for 30 min at 4° C. to avoid internalization. Binding was detected by 2nd antibody of PE-anti-human Fc at 4° C. for another 30 min. The median fluorescence intensity (MFI) on HH and NK92 cells was measured using FACS.\n(§2) Affinity of IL-2 variants to IL-2Rα/β/γ supported the same results (FIG. 8 and Table 7). […] And T2U0.E44-26, T2U0.E44-27, T2U0.E44-29 and T2U0.E44-30 induced hundreds to thousands affinity reduction in Treg compared to T2U0.E44-1. Binding curves in MJ20 cells (IL-2Rα/β/γ) also achieved similar trend (FIG. 8b). As a result, the method of C-terminal truncation and substitution of 129 was available to achieve IL-2Rβγ attenuated IL-2 variants.", "units": {"EC50": "nM"}}
{"binder": "B1", "EC50": 42.8}
{"binder": "B2", "EC50": 63.2}
{"binder": "B3", "EC50": 183}
{"binder": "B4", "EC50": 233}
{"binder": "B5", "EC50": 75.3}
{"binder": "B6", "EC50": 18.4}
{"binder": "B7", "EC50": 103}
{"target": "T2, Human IL-2Rβ/γ (intermediate affinity IL-2 receptor) (human, UniProt P14784 27-551; P31785 23-369)", "T2 construct": "whole, on cells; also called IL-2Rβ/γc; IL-2Rβ (CD122) and γ (CD132)", "T2 sequence (looked up) 1": "T1 sequence (looked up) 2", "T2 sequence (looked up) 2": "T1 sequence (looked up) 3", "experiment": "FACS, HH cells; EC50 fold vs T2U0.E44-1", "procedure": "as §1", "units": {"Affinity reduction": "fold"}}
{"binder": "B1", "Affinity reduction": 18.5}
{"binder": "B2", "Affinity reduction": 23.8}
{"binder": "B4", "Affinity reduction": 28.8}
{"binder": "B5", "Affinity reduction": 51.1}
{"binder": "B6", "Affinity reduction": 8.1}
{"binder": "B7", "Affinity reduction": 15.6}
{"target": "T2, Human IL-2Rβ/γ (intermediate affinity …)", "experiment": "FACS, HH cells", "procedure": "as §1", "units": {"EC50": "nM"}}
{"binder": "B1", "EC50": 993}
{"binder": "B2", "EC50": 1280}
{"binder": "B4", "EC50": 1550}
{"binder": "B5", "EC50": 2740}
{"binder": "B6", "EC50": 438}
{"binder": "B7", "EC50": 839}
{"target": "T1, Human IL-2Rα/β/γ complex (high affinity …)", "experiment": "FACS, MJ20 cells; EC50 fold vs T2U0.E44-1", "procedure": "as §1, §2", "units": {"Affinity reduction": "fold"}}
{"binder": "B1", "Affinity reduction": 3.1}
{"binder": "B2", "Affinity reduction": 4.5}
{"binder": "B3", "Affinity reduction": 13}
{"binder": "B4", "Affinity reduction": 17}
{"binder": "B5", "Affinity reduction": 5.4}
{"binder": "B6", "Affinity reduction": 1.3}
{"binder": "B7", "Affinity reduction": 7.4}
{"target": "T1, Human IL-2Rα/β/γ complex (high affinity …)", "experiment": "cell-based or functional assay", "units": {"Potency in human Treg EC50": "nM", "Potency reduction (Treg)": "fold"}}
{"binder": "B1", "Potency in human Treg EC50": 1.16, "Potency reduction (Treg)": 460}
{"binder": "B2", "Potency in human Treg EC50": 0.022, "Potency reduction (Treg)": 8.8}
{"binder": "B3", "Potency in human Treg EC50": 2.64, "Potency reduction (Treg)": 1050}
{"binder": "B4", "Potency in human Treg EC50": 3.76, "Potency reduction (Treg)": 1490}
{"binder": "B5", "Potency in human Treg EC50": 1.85, "Potency reduction (Treg)": 737}
{"binder": "B6", "Potency in human Treg EC50": 0.003, "Potency reduction (Treg)": 1.2}
{"binder": "B7", "Potency in human Treg EC50": 0.095, "Potency reduction (Treg)": 37.6}
{"target": "T2, Human IL-2Rβ/γ (intermediate affinity …)", "experiment": "cell-based or functional assay", "units": {"Potency in human CD8+ T EC50": "nM", "Potency reduction (CD8+ T)": "fold"}}
{"binder": "B1", "Potency in human CD8+ T EC50": 649, "Potency reduction (CD8+ T)": 32.5}
{"binder": "B2", "Potency in human CD8+ T EC50": 84.9, "Potency reduction (CD8+ T)": 4.2}
{"binder": "B3", "Potency in human CD8+ T EC50": 493, "Potency reduction (CD8+ T)": 24.7}
{"binder": "B4", "Potency in human CD8+ T EC50": 406, "Potency reduction (CD8+ T)": 20.3}
{"binder": "B5", "Potency in human CD8+ T EC50": 371, "Potency reduction (CD8+ T)": 18.5}
{"binder": "B6", "Potency in human CD8+ T EC50": 125, "Potency reduction (CD8+ T)": 6.3}
{"binder": "B7", "Potency in human CD8+ T EC50": 446, "Potency reduction (CD8+ T)": 22.3}
